Source: patent US20170319655A1 (UNIVERSITY OF MARYLAND BALTIMORE, published 2017)

Tests used:
[1] = target: T1, MUC1-ED on Ad-NEU1-infected airway epithelial cells (A549 cells; SAECs), desialylated by overexpressed NEU1 (human, UniProt P15941 24-1255, glycans desialylated by overexpressed NEU1); assay: Scatchard transformation of Alexa Fluor 594-flagellin binding to A549 cells
T1 construct: Endogenous MUC1 of human airway ECs that overexpress NEU1; also called Ad-NEU1-infected ECs

[2] = target: T2, MUC1-ED on Ad-GFP-infected airway epithelial cells (A549 cells; SAECs) (human, UniProt P15941 24-1255, endogenous sialylated glycans (alpha2,3- and alpha2,6-linked sialic acid)); assay: Alexa Fluor 594-flagellin binding to Ad-GFP-infected A549 cells, 40 min at 4 C, fluorometry, Scatchard transformation; receptor named by the filing as MUC1-ED
T2 construct: Endogenous MUC1 of human airway ECs; also called Ad-GFP-infected ECs
T2 sequence (P15941 24-1255 limits assumed): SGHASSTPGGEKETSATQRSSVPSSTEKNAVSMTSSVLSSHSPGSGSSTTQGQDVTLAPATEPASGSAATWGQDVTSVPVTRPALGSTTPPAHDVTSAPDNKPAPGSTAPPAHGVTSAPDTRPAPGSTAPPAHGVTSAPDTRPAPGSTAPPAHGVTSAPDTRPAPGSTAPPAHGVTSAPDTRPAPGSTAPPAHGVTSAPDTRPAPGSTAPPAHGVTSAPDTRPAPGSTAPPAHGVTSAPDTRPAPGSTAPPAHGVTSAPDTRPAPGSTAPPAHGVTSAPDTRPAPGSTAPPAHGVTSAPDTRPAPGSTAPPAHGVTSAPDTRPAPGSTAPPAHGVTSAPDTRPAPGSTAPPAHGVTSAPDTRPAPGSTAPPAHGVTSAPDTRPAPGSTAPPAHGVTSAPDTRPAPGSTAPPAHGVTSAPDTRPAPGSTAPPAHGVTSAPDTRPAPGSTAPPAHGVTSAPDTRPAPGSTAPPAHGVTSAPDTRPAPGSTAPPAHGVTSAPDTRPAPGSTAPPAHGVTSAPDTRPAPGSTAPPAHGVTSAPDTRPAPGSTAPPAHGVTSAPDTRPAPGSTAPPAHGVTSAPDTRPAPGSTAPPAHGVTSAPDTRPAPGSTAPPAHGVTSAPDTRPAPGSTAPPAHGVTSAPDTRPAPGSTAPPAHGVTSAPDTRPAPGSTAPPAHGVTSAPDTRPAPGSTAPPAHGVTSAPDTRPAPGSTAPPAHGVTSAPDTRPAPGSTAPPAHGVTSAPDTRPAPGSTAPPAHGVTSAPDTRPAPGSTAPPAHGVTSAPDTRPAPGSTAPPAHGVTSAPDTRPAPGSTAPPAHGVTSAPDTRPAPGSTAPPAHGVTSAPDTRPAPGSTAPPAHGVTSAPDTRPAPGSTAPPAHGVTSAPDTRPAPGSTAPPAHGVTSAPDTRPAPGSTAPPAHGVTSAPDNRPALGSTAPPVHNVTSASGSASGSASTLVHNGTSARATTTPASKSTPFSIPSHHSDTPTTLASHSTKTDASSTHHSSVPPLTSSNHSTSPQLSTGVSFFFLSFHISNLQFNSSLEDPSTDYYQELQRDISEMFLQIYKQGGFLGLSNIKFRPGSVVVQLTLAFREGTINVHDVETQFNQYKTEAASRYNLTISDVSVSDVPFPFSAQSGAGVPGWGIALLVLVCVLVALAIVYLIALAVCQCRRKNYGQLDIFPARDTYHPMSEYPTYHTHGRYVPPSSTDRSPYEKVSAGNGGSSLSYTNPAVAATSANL

[3] = target: T1, MUC1-ED on Ad-NEU1-infected airway …; assay: Alexa Fluor 594-flagellin binding to Ad-NEU1-infected A549 cells, 40 min at 4 C, fluorometry, Scatchard transformation; receptor named by the filing as MUC1-ED

T1 sequence (P15941 24-1255 limits assumed): as above

B1: Pseudomonas aeruginosa (Pa) flagellin purified from Pa strain PA01, Alexa Fluor 594-labeled (ligand)
chain: MALTVNTNIASLNTQRNLNASSNDLNTSLQRLTTGYRINSAKDDAAGLQISNRLSNQISGLNVATRNANDGISLAQTAEGALQQSTNILQRIRDLALQSANGSNSDADRAALQKEVAAQQAELTRISDTTTFGGRKLLDGSFGTTSFQVGSNAYETIDISLQNASASAIGSYQVGSNGAGTVASVAGTATASGIASGTVNLVGGGQVKNIAIAAGDSAKAIAEKMDGAIPNLSARARTVFTADVSGVTGGSLNFDVTVGSNTVSLAGVTSTQDLADQLNSNSSKLGITASINDKGVLTITSATGENVKFGAQTGTATAGQVAVKVQGSDGKFEAAAKNVVAAGTAATTTIVTGYVQLNSPTAYSVSGTGTQASQVFGNASAAQKSSVASVDISTADGAQNAIAVVDNALAAIDAQRADLGAVQNRFKNTIDNLTNISENATNARSRIKDTDFAAETAALSKNQVLQQAGTAILAQANQLPQAVLSLLR
modifications: Alexa Fluor 594 label (site not stated)
notes: also called purified flagellin; Alexa Fluor 594-flagellin
fold reduction in Kd against Ad-GFP-infected ECs [1]: 2.9 fold | Kd [2]: 7.35 nM | Kd [3]: 2.54 nM
